{
  "source": "paper PMC3727933",
  "about": "(Molecular Biology of the Cell, 2013)",
  "proteins": {"B1": {"name": "Nwk^1-428∆tips (domain or fragment, Drosophila, UniProt X2JAU8 1-428, looked up)", "chain": "MQPPPRKGNYVKFLKNLHTEQVAKLQLKNQHECDLLEDIRQFTIKRSAVEKSYSESLLKISSQYLNKKIPNIPDIKMEGMEERWNMWSVWRTVLEENEKLARARLAAIEVFQQQIADEAKVLRDYKLAIAKRSLAGIVNVQKELHLSVGDVDKTKKSYFDEEHCAHDVRDKARDIEEKLKNLITSLQKNSARVTSRKELLEEKSSGARNDYVLSLAAANAHQNRYFTVDLQTTMTTMENYVFERVAEYLMLMGRTELLTCSATQNSFGKIRDQAQQLTREYNLQCCYLFYPVLKQHIQYDFEACDNDPVRKVTAEHESAAETLTKEAKNLAGRVVKENASIRENAKKLALCQSLRDSGQRTDPNDPNGPDLDTKIEEFRDQIRRSETEKTKAEACLQCLRDGGINVDEWVQEAENMGVQEL"}},
  "biological_target": "the molecule itself",
  "experiment": "SEC",
  "data": [
    {"protein": "B1", "values": [
      {"measurement": "stoichiometry N", "value": 2}
    ]}
  ]
}
